Source: the DeepSol protein solubility set

Test: soluble on expression in E. coli; label from the status in PepcDB or PDB records
In the case of “MGSDKIHHHHHHAEPAPSQEDMRLYTIASAPSAGRIEQDIKTLVGFGTRHTLSQTDSNAQGIGAARRWIETEFQRISAKCNGCLEVVTLSETVSGKRIPNPTEVVNVIAIQRGLTDPNRAVVMTGDIDSRVTDVMNSSAISPGANDNASGVAGTLEAARVLSQYQFAGTIIYAALSGEEQGLYGGDILINHAKAQGLQIQAVLNNDMIGNIAGINGVIDNHSVRVFSEGVRIAETSEEAKERYFSGGENDSASRNLARKIKSLADQYMTNLDVQLINRLDRFGRGGHHLPFNKAGFAAVRVMETNEHYHRQHQDIRTENGIAYGDVIEGVDFDFNAKLTALNAISLAAMAWAPAPPKEVKISGEVSADTVLKWTVNNKDKALVGYRVYWRNTTASEWTHSRYVGKLGQFTLKNLVIDNYLFGVASVSADGNTSPVVFPGAIGAF”, the “soluble on expression in E. coli” value is reported as “not soluble”. With “MAHHHHHHMDTRMKDLSFKVVLLGEGRVGKTSLISRYVHNAFDEKEASTVQASMHSSKAVPINDASSAPGAIREVDLALWDTAGQERFHALAPMYYRNADGAIIVYDVTDADTLRKVRTWAKELYAVVGEGKIQLVLCGNKADTPLAEREVSEGEGAAMAAELGASHFFASAKTGQNVAEVFSAMATQVARSREVTGMGGGVAAGGSSGSSGGGAYTGISGRTPSRSRARRGLMVVTEDGEAVTPGRSSPCEGRVYGGITPPRAHRYGSSGTNQPITLSADGSPDAAAAANKSGCC” the “soluble on expression in E. coli” value was “soluble”. With “VQRCVIIQKDQHGFGFTVSGDRIVLVQSVRPGGAAMKAGVKEGDRIIKVNGTMVTNSSHLEVVKLIKSGAYVALTLLGSS” the “soluble on expression in E. coli” value was “soluble”. With “MTTLIISDLHLDPLRPVVTELFLRFLREQVSGADALYILGDLFEIWIGDDMPSEVADMVVAALRTHADAGTPLYFMPGNRDFLVGADYAARAGFRILPDPCVVDLYGEPTLLLHGDLLCTDDIAYQAFRAQTRDPEFIAQFLTQTLSARLAFAQQARLASHAHQSGLKQENDSTQFEKITDVVPADVAAMFACYGVNRMIHGHTHRPALHMLQVAECACTRVVLGDWYQQGSVLCVDADGLVLEQLLLP” the “soluble on expression in E. coli” value was “not soluble”. With “MGSDKIHHHHHHMKITPIAFESLGVRSQATLIETKDLRVLVDPAVSLAPRRYNLPPHQREVDRLTQLAKVLVDVAKDVDVIVVSHYHYDHHDPGYVIPTDIYKNKIVFLKDPQNMINNSQKYRRAPRFLRSIKDKPRKIEIADGKTFEFNTTTISFSPAVPHGADERLGYVIQVAISDKDSTVIFTSDIEGAPKDVHLKFTKEKMPTVIIIDGPLSYLLGRALKEEELENSIRNMEEIIKNGLETVIIDHHVLRDINYAQVLKPVHDIAKDLGVRVTTAAEYLNLEPLILEARRKELYKEDNRPAKIPRGLANLLNAGDG” the “soluble on expression in E. coli” value was “not soluble”. With “MRGSVPSVREIETLLSQLPWRQFQSPRVHLEQYTTPVHLAARIAHHVALCIDEDERRSVQAVDLGTGTGILALALCLAGLNHVLGVDVDSEALELARANAAALWELCPQSVGAVLEFAAVDVQPNSLALAPKSFDVAVLNPPFGTRQRSADIAFLDVACHLSRRFVYSLHKSSTRSYLSRRLERFGCTAQVYARLRFDLPATYVFHRERAVDIDVDLWQIEVKR” the “soluble on expression in E. coli” value was “not soluble”. For “SLIFGKIDYINLLPLHIYLKKYPLPNGYKASMEYKKGVPSKLNKDLFYRRIDAAIISSIESARKKYKNLDLGICANKRVLSVLVEKNTSNAKDPSSATSNALAKVLKQDGKVIIGDKALKLYLKDPSKYIDLCAKWHEKTGLPFVFARFSCVQKKALYKQILKKFPKTKIKIPYYILQKYAKTRDLDVKDVRYYLDEVIYHKISTKEKTALKRFVKACKALNLA”, the “soluble on expression in E. coli” value was “soluble”. For “MGSDKIHHHHHHMGQGTDSMSKRGRVYIIGAGPGDPGLMTVKGTKCLAEADVVIYDHLINPGILHHARETARLVYAGKEGGKHTLSQEEINARLVSEAQQGHVVARLKGGDPFIFGRGGEEAEVLAREGIPFEIVPGVTSAIAVASYAGIPLTHRRHTATLAFVTGHEDPLKGQSEIDWKALAGIGTLVFLMGVRNLSRIAAGLIAQGKKPETPAALIRWGTTANQETLVGTLENIADLAEAAGFAPPAILVVGGVVGLRKELNWFETRPLFGKGIVITRPESQAESLAALLEDAGARVISFPTIQIVAPESWEGLDSAIRRLEDYAWLIFTSANGVRFFLERLYVTGKDVRDLKGIRLCTIGPATAAALENRGLRVDLVPETYLSEGVVAAFERVAISGQRILLPRAEKARDVIPEGLTRQGAVVDVVSAYRTVNSGRDRSELVELIAQRRVDVLTFTSPSTVTNFLEIMGPDFLPLPAGIRVACIGPVTAAAAEKAGLPVDILQEIYTIPGLVESLKVFLAKDKPH”, the “soluble on expression in E. coli” value was “not soluble”. In the case of “MPRYLGLMSGTSLDGMDIVLIEQGDRTTLLASHYLPMPAGLREDILALCVPGPDEIARAAEVEQRWVALAAQGVRELLLQQQMSPDEVRAIGSHGQTIRHEPARHFTVQIGNPALLAELTGIDVVADFRRRDVAAGGQGAPLVPAFHQALFGDDDTSRAVLNIGGFSNVSLLSPGKPVRGFDCGPGNVLMDAWIHHQRGEHFDRDGAWAASGQVNHALLASLLADEFFAARGPKSTGRERFNLPWLQEHLARHPALPAADIQATLLELSARSISESLLDAQPDCEEVLVCGGGAFNTALMKRLAMLMPEARVASTDEYGIPPAWMEGMAFAWLAHRFLERLPGNCPDVTGALGPRTLGALYPA”, the “soluble on expression in E. coli” value is reported as “not soluble”. With “MGSDKIHHHHHHMPRSARIDIPNLLQHVIVRGIERRDIFLSDDDRWDFRNRLQKLLLEMDVDCLAWSLMSNHFHLLLRPTRTPLAPFMRRLLTGYAVSFNLRHNRSGHLFQNRYKSIVCDEDSYLLELVRYIHLNPLRAGIVADLGALDTFPWSGHAMLMGKIVLEGQGINEVLRYFGPGVSASRRTYREFMADGVLQGERPDLVGKRSGASGGGCPASDRRILGDENFVEQLKTEECLHQQLRRPMSIESIVATIADQYGVAPKAIASKSRLPRTLDARAVVCYTAVEEGHTGAEVGRVLGMTRSGVAIARRRGEEVLARIESTAEFQHDTRLDSTN” the “soluble on expression in E. coli” value was “not soluble”. In the case of “MQFNAVLVKLLDELEVRLRAAQLWQATPPSSQALVSQEPFAVDTLLPHEWLQWIFLPKMQQAIAQNAVPRGFALEPYFSEVWQGEARYQAVLAVIQQIDKVCQ”, the “soluble on expression in E. coli” value is reported as “not soluble”. In the case of “RRENARRFDRKQYDFVDIDECAIQTKTYPGSDHDMAQDWLQKQMMILKPKYREPLLLSLVAGLNHDEIAQALRLNHNTVATRLFRARNQLIAQQGNH”, the “soluble on expression in E. coli” value is reported as “not soluble”. In the case of “MDWDDEYSHNSFDLHCLLNSFPGDLEFEQIFSDIDEKIEQNAASIKHCIKEIQSEINKQCPGVQLQTTTDCFEWLTNYNYSTSESSFISHGDLIKFFKTLQDLLKNEQNQEEMTLDLLWDLSCHSSVSFPSTLSGTSFHFLSRTSLHSVEDNSSMDVKSMWDDIRLHLRRFLVSKLQSHNEINNSQQKILLKKQCLQQLLFLYPESEVIIKYQNIQNKLLANLLWNCFPSYNRDSNLDVIAHGYQSTMLKLYSVIKEDFNTLCEILAPSSMVKFIKETYLDTVTEEMAKFLENFCELQFRENAVRVVKTSKSSSKHRGAVHALG”, the “soluble on expression in E. coli” value is reported as “soluble”. For “MSLTDNQDPLQLVQEFRSIAGEAALVCAEETEDQRDRTQFVNFELEAKLWYLVELLVSFRTSDAPMDDIELHDYNSNAVFKKAQLQEDPELYVVWLIIAWIQENLTVSPRPAELPTTKWSNTLLAGGLKSSDLDCPLREEGVQIHPKDNQDDHCFYKYMYELILAGKYEEVRRECEYSDNLTLGMIMCGLEDYVDPRIDLELAGDYEGHQGIKKRALWRRAVYALSRNPNLDKYEAAIYAFLSGTIPQDIDEQQLDWERMLLVYLNQIWNIKIENYLLEKERINKEELIEQMPSQPLSLSAVLNIVASKHVEESEHPIRVLMGAVILNTISPAVKSFIDMLLDAVKGVDQENDLLSEPYILRILTHLVIFLDKACPGVIEEGDKSKLVTTYVSLLNLYEQYDLVPVYISCLDEQDIMEAYSFFLSNLVGDSSRERQLELCYFFQLPTANILKRTAQRIFNDTEPHYNLADTVTMNSEVTDIDLHLISAVDWLMKGRLHVDAVESIIALCRRFLANGKVNSLSTFFEQHNMDDLIKNYELDQLSAKEEYPEDRFVQEIGQYTKLITGFRQYKNWENSSHTVSSSKNTSALLQQFQAFASTLRGLVTEFLVELTEHTDMPSEDRDMLYNIRSLYTPYLLIELHNSYTSTAEKLGVPSFLQEAVNLSTMVANETDKIYLLFQNSGKLKEYLHLVAKAVALIGHEGHHHHHH”, the “soluble on expression in E. coli” value was “not soluble”. In the case of “KRAPDGRVLDIAGTEHSLHDLTRGKISLVSFVYLTCGDVNGCPLAMSVFFDVHDASGDLPGLNEDVQLLTISFDPARDTVEAIEAFAYPITSDEQAGDKLNWQVLTTSGPQELRPILDGYGQVVDRSEDQETISHLLRLFLVDRQGDIRNVYGLGFLDPRLLLTDIETLLMEEAGA”, the “soluble on expression in E. coli” value is reported as “soluble”. For “RVTVMLAAFEGWNDAGEAASDALHYLNKLWDGKKVATVDAEEYYDFQFTRPTVRRTSSGARKVKWPSTRIYKAEVPDSNVDVVLVLGTEPSYRWRAYTTELLVHAEALKVDSVILVGALLADVPHSRPIPVSTTTEDSSLRERLNLEASQYEGPVGIVGVLAEFAMLAGLPTVSLWAAVPHYVAQPPSPKAQLAILHRIEDLLQVPLDSQALAEESEAWERGVDELATEDPEITAYVRQLEEAKDTADLPE”, the “soluble on expression in E. coli” value was “not soluble”. With “AIYHLTAKTGSRSGGQSARAKADYIQREGKYARDMDEVLHAESGHMPEFVERPADYWDAADLYERANGRLFKEVEFALPVELTLDQQKALASEFAQHLTGAERLPYTLAIHAGGGENPHCHLMISERINDGIERPAAQWFKRYNGKTPEKGGAQKTEALKPKAWLEQTREAWADHANRALERAGH” the “soluble on expression in E. coli” value was “soluble”. For “MSSRVANLTVIVSSKRRRVSVARFSCGKTAQLSKKQTGYYSPEIFPSTGKDCNPQPANCLKDQYVLRHCCVDDRSGKMGYSVKFLVLTRMDTETASLFHCKPCYSKMTFTIYHPLTHSFFTSCWLEHHHHHH”, the “soluble on expression in E. coli” value was “not soluble”. With “MRSKFFSFFTRASRPMKAIPPKIWFETQLKGSGLDKKFQIDELIETQSSVRVFANKKYLPDTETINEALTKVTAVNVSGDKSGYFQNGLPFPNEAGYFEKIPVGHPELLSPIERLTGSKKIVSSHSLVTASGGYPLTNPLLPYRKPIRVSIFSLAGPSFENNYLHYRLFLLDSVQKIIDSPLFSHLHDGLPIQFDEAKKELGEYDTNKLMARIRLGFPYLARFSSGGFYPSFSKSNAIIFLSEAYFRYQLEDVSLLLASVNQTGKETGKAALLKATAVGMGFFAKIDCGYDIQHIIFPYYLRAYKKLLSEHKFPWIAKIEFPIFNEIQQEQFDSIFEDYDGPTKVYRSTRDVLEFREEEIEKYLPAAINPSDAFALTGNEWGYGSVESMIGNNSSIRFDQVHHMNPLILDPSHHVEAQINKDHGVELTVNPRPQSSSSIKL” the “soluble on expression in E. coli” value was “not soluble”. For “MIKHLFIDLDDTLWDTYHNNKSSLEELYHTHAWDRYFDSFETFFSIYLPHNEALWSEYRYGQIDKPTLTLERFRRPFTGYLTLSDEQILAWNAEFLSITGRKTRLCPHALEVMEYLHRYYKVYILSNGFREIQHAKLTNSGLAPYIDRVILSEDAGINKPNKKIFDFALVKAKARKTESIMIGDSWEADIVGAANAGLASVWYNPNRHILPDDGVRAPMHIISSLSELMQIF”, the “soluble on expression in E. coli” value was “not soluble”. For “MDPNFHNTGPSGSAPRKPETWRSCKEANKVIEMFYSEGNFYHDIYMEELANLAETSHKNVRDTLSRLRKKDERAGKYVPPPPKQMYEFTSEQRGALDQAFLVTPQMDSDGARELSEITGLTVKQINNWFCNQRRKADGRSAEKDKKRRERIREDMKKNGLGRVGTFRSEAVELFEKEYETMLQLEAIGGGKVRIPYTELVEKTGMERKKIRDWFSKRKGRDKRFLENMENTREVSPQNTQQNIQDILIKIVTQKEESALQRHAPEMRDAGQRDGFCLFGFFLRD”, the “soluble on expression in E. coli” value was “not soluble”.
